Measured values published in patent publication US20140234351A1 (IMMUNOCELLULAR THERAPEUTICS, published 2014).

B1: EphA2 883-891 HLA-A2 peptide (peptide)
peptide: TLADFDPRV
notes: Synthetic peptide; also called EphA2p883; EphA2 p883
B2: MAGE-A1 278-286 HLA-A2 peptide (peptide)
peptide: KVLEYVIKV
notes: Synthetic peptide; also called MAGEA1p278; MAGE-A1 p278
B3: Mesothelin 531-539 HLA-A2 peptide (peptide)
peptide: VLPLTVAEV
notes: Synthetic peptide; also called mesothelinp531; mesothelin p531
B4: FOLR1 191-199 HLA-A2 peptide (peptide)
peptide: EIWTHSYKV
notes: Synthetic peptide; also called FOLR1p191; FOLR1 p191
B5: IL-13Rα2 345-352 HLA-A2 peptide (peptide)
peptide: WLPFGFILI
notes: Synthetic peptide; also called IL-13Rα2p345; IL-13Rα2 p345

molecular target: T1, HLA-A*0201 molecules on TAP-deficient T2 cells (human); test: T2 cell binding assay, fluorescence index (MFI peptide - MFI untreated)/MFI untreated
T1 construct: also called HLA-A2; T2 cells expressing HLA-A2

MFI index | Binder
> 1.5 | B1
> 1.5 | B2
> 1.5 | B3
< 1 | B4
> 1.5 | B5
